Source: patent publication US20180318382 (published 2018)
Where two headings read alike, the source gives them in different places. Where no end group is shown, it is not given here.

T1: NHERF-1 PDZ1 (human, UniProt O14745)
T1 chain: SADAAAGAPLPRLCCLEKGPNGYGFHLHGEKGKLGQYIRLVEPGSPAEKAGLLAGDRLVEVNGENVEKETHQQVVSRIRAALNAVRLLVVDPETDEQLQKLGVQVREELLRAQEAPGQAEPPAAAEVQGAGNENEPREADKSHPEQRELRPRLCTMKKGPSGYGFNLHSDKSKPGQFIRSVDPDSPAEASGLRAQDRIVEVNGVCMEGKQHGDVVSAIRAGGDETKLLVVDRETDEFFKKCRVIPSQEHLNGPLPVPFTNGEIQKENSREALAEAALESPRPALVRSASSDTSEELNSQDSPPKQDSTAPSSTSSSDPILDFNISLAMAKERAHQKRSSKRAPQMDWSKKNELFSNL

T2: TIP-1 (human, UniProt O14907)
T2 chain: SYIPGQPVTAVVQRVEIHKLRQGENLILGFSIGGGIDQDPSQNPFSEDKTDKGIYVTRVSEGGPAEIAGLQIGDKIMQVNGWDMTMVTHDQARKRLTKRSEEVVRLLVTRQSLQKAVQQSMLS

T3: NHERF-1 PDZ2 (human, UniProt O14745)
T3 chain: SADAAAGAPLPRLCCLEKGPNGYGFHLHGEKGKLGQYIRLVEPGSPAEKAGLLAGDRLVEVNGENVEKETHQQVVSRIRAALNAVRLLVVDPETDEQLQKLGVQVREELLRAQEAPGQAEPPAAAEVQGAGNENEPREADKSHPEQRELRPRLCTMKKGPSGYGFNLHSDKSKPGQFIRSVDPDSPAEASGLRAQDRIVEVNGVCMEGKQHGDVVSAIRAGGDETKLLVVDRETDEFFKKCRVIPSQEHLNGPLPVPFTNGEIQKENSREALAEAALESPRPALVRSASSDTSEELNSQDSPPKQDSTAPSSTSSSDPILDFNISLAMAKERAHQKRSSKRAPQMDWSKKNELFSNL


Legend:
[1] = biological target: T1, NHERF-1 PDZ1; experiment: FP, competition
[2] = biological target: T2, TIP-1; experiment: FP, competition
[3] = biological target: T3, NHERF-1 PDZ2; experiment: FP, competition
[4] = biological target: T4, CAL PDZ (human, UniProt Q9HD26); experiment: FP, competition
[5] = biological target: T4, CAL PDZ

Binder | Ki [1] [µM] | Ki [2] [µM] | Ki [3] [µM] | Ki [4] [µM] | Ki [5] [µM]
ANSRLPTSKI [ANSRLPTS[K-AEBA]I] | > 5000 | > 5000 | > 5000 | – | –
Ac-WQVTRV [kCAL01] | – | – | – | – | ~1
ANSRLPTSK(Ac)I [ANSRLPTS[Ac-K]I] | > 5000 | > 5000 | > 5000 | – | –

Second part, the binder after the results:

Ki [1] [µM] | Ki [2] [µM] | Ki [3] [µM] | Ki [4] [µM] | Ki [5] [µM] | Binder
> 5000 | > 5000 | > 5000 | – | – | ANSRLPTSII [iCAL42 ANSRLPTSII]
2.8 | 0.057 | 208 | 1.17 | – | ANSRWQVTRV
2.8 | 0.057 | – | 1.13 | – | ANSRWQVTRV [ANSRWQVTRV (second entry)]
– | > 5000 | – | 4.42 | – | Ac-LPVTRV [Ac-LPVTRV]
– | 0.258 | – | 1.22 | – | Ac-WPVTRV [Ac-WPVTRV]
